Assay results as given in PMC5346138, “High-affinity RNA binding by a hyperthermophilic single-stranded DNA-binding protein”.
Substitutions are numbered along the chain they refer to. Names may count otherwise.

Key:
[1] = target: T1, SsoSSB (single-stranded DNA-binding protein) (Sulfolobus solfataricus, UniProt Q97W73 1-148); experiment: FRET hairpin melting; hairpin disrupted at 20 nM SsoSSB; ITC: 20 mM MES pH 6.5, 100 mM K-glutamate, 1 mM MgCl2, 50 C; PIFE: 50 mM Tris-HCl pH 8.0, 10 mM KCl; smFRET: same buffer plus Trolox and oxygen scavenger, room; details: protein: recombinant; label: 5' Cy5, 3' Cy3; hairpin with single-nucleotide bulge
T1 sequence: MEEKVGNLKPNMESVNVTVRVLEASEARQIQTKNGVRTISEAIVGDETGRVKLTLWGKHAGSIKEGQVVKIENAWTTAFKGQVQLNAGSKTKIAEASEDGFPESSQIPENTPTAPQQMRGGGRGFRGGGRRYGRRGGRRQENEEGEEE

SsoSSB OB domain (15N) [2] = target: T2, SsoSSB OB domain (15N) (Sulfolobus solfataricus, UniProt Q97W73 1-114); experiment: NMR HSQC; 1:1, 298 K; 2MNA is an earlier structure; ITC: 20 mM MES pH 6.5, 100 mM K-glutamate, 1 mM MgCl2, 50 C; PIFE: 50 mM Tris-HCl pH 8.0, 10 mM KCl; smFRET: same buffer plus Trolox and oxygen scavenger, room; details: protein: recombinant; single-stranded
T2 sequence: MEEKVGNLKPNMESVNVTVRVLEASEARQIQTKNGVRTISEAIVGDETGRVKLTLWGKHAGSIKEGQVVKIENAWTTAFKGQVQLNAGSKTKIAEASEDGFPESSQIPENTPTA

[3] = target: T1, SsoSSB (single-stranded DNA-binding …); experiment: fluorescence (PIFE); 10 nM RNA, 10 mM KCl; Hill 1.8 +/- 0.3; ITC: 20 mM MES pH 6.5, 100 mM K-glutamate, 1 mM MgCl2, 50 C; PIFE: 50 mM Tris-HCl pH 8.0, 10 mM KCl; smFRET: same buffer plus Trolox and oxygen scavenger, room; details: protein: recombinant, label: 5' biotin, 3' Cy3
[4] = target: T1, SsoSSB (single-stranded DNA-binding …); experiment: fluorescence (PIFE); ~0.7 nM RNA; Hill 1.7 +/- 0.2; ITC: 20 mM MES pH 6.5, 100 mM K-glutamate, 1 mM MgCl2, 50 C; PIFE: 50 mM Tris-HCl pH 8.0, 10 mM KCl; smFRET: same buffer plus Trolox and oxygen scavenger, room; details: protein: recombinant, label: 5' biotin, 3' Cy3
[5] = target: T3, SsoSSB A114C-Alexa Fluor 647 (Sulfolobus solfataricus, UniProt Q97W73 1-148, A114C); experiment: single-molecule FRET; 1-2 nM protein; dissociation 6 +/- 1 s-1, association 0.12 +/- 0.08 s-1; ITC: 20 mM MES pH 6.5, 100 mM K-glutamate, 1 mM MgCl2, 50 C; PIFE: 50 mM Tris-HCl pH 8.0, 10 mM KCl; smFRET: same buffer plus Trolox and oxygen scavenger, room; details: protein: recombinant; tags: Alexa Fluor 647 label; label: 5' biotin, 3' Cy3; single-stranded
T3 sequence: T1 sequence with A114C

[6] = target: T1, SsoSSB (single-stranded DNA-binding …); experiment: ITC; apparent Kd, 50 C; text says 21T, Fig. 1 legend says poly-A DNA; ITC: 20 mM MES pH 6.5, 100 mM K-glutamate, 1 mM MgCl2, 50 C; PIFE: 50 mM Tris-HCl pH 8.0, 10 mM KCl; smFRET: same buffer plus Trolox and oxygen scavenger, room; details: protein: recombinant
[7] = target: T1, SsoSSB (single-stranded DNA-binding …); experiment: ITC; apparent Kd, 50 C; text says 21U, Fig. 1 legend says poly-rA; ITC: 20 mM MES pH 6.5, 100 mM K-glutamate, 1 mM MgCl2, 50 C; PIFE: 50 mM Tris-HCl pH 8.0, 10 mM KCl; smFRET: same buffer plus Trolox and oxygen scavenger, room; details: protein: recombinant
[8] = target: T3, SsoSSB A114C-Alexa Fluor 647; experiment: single-molecule FRET; 1-2 nM protein; dissociation 3.8 +/- 0.8 s-1, association 0.06 +/- 0.01 s-1; ITC: 20 mM MES pH 6.5, 100 mM K-glutamate, 1 mM MgCl2, 50 C; PIFE: 50 mM Tris-HCl pH 8.0, 10 mM KCl; smFRET: same buffer plus Trolox and oxygen scavenger, room; details: protein: recombinant; tags: Alexa Fluor 647 label; chain copies: 2; label: 5' biotin, 3' Cy3; single-stranded
[9] = target: T1, SsoSSB (single-stranded DNA-binding …); experiment: fluorescence (PIFE); 10 nM DNA, 10 mM KCl; Hill 1.6 +/- 0.5; ITC: 20 mM MES pH 6.5, 100 mM K-glutamate, 1 mM MgCl2, 50 C; PIFE: 50 mM Tris-HCl pH 8.0, 10 mM KCl; smFRET: same buffer plus Trolox and oxygen scavenger, room; details: protein: recombinant, label: 5' biotin, 3' Cy3
SsoSSB OB domain (15N) [10] = target: T2, SsoSSB OB domain (15N); experiment: NMR HSQC; 1:1, 298 K; the RNA complex is only a HADDOCK model; ITC: 20 mM MES pH 6.5, 100 mM K-glutamate, 1 mM MgCl2, 50 C; PIFE: 50 mM Tris-HCl pH 8.0, 10 mM KCl; smFRET: same buffer plus Trolox and oxygen scavenger, room; details: protein: recombinant; single-stranded

UGAUAAUCUCUUAUAGAAUUGAAAGU (structured_RNA) [RNA Hairpin]
binding result [1]: binds

TTTTTT (ssDNA) [6T ssDNA]
binding result (SsoSSB OB domain (15N) [2]): binds

CCCCCCCCCCCC (ssRNA) [C12ssRNA]
Kd [3]: 4.2 ± 0.6 nM
Kd [4]: 6 ± 1 nM
binding result [5]: binds

TTTTTTTTTTTTTTTTTTTTT (ssDNA) [21T DNA]
Kd [6]: 95 ± 0.6 nM

UUUUUUUUUUUUUUUUUUUUU (ssRNA) [R21U (21U RNA)]
Kd [7]: 93 ± 0.4 nM

CCCCCCCCCCCC (ssDNA) [C12ssDNA]
binding result [8]: binds
Kd [9]: 8.2 ± 0.9 nM

UUUUUU (ssRNA) [6U RNA]
binding result (SsoSSB OB domain (15N) [10]): binds
